Tests used:
[1] = target: recombinant rhesus OX40-his (Sino Biological, Cat#:90846-C08H) (rhesus monkey); assay: ELISA, coated rhOX40-his
[2] = target: recombinant rhesus OX40-his (Sino Biological, Cat#:90846-C08H) (rhesus monkey); assay: ELISA on coated rhesus OX40-His, OD450
[3] = target: recombinant human OX40-his (Sino Biological, Cat#:10481-H03H) (human) (UniProt P43489); assay: ELISA on coated human OX40-His, OD450
[4] = target: recombinant human OX40-his (Sino Biological, Cat#:10481-H03H) (human) (UniProt P43489); assay: SPR Biacore 8K, OX40-His on chip, antibody injected
[5] = target: human OX40-CD40 fusion protein on HEK-Blue reporter cells (human); assay: cell-based or functional assay
[6] = target: rhesus OX40 expressed on HEK293A cells (rhesus); assay: FACS on HEK293A cells
[7] = target: human OX40 expressed on HEK293A cells (human) (UniProt P43489); assay: FACS on HEK293A cells
[8] = target: recombinant human OX40-his (Sino Biological, Cat#:10481-H03H) (human) (UniProt P43489); assay: ELISA, coated hOX40-his
[9] = target: human OX40 expressed on HEK293A cells (human) (UniProt P43489); assay: FACS on HEK293A/huOX40 cells, MFI
[10] = target: rhesus OX40 expressed on HEK293A cells (rhesus); assay: FACS on HEK293A/rhOX40 cells, MFI

Chain of human OX40 expressed on HEK293A cells (human) (P43489 29-277 limits assumed): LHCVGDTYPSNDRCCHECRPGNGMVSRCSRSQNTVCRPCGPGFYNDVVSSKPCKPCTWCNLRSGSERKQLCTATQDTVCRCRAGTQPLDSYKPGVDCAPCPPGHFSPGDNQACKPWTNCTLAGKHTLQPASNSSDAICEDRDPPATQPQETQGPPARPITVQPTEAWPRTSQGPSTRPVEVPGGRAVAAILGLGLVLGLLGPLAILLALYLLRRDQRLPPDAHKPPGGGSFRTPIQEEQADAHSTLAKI
Chain of recombinant rhesus OX40-his (Sino Biological, Cat#:90846-C08H) (rhesus monkey) (P43489 other isoform, or with tags, fused parts or gaps C08H C08H limits assumed): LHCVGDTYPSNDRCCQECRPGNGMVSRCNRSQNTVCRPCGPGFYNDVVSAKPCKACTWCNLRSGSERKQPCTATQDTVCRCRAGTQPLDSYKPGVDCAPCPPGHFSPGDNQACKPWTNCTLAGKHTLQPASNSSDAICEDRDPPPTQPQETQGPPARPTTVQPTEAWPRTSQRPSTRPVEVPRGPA
Chain of recombinant human OX40-his (Sino Biological, Cat#:10481-H03H) (human) (P43489 29-214 limits assumed): as the sequence (P43489 other isoform, or with tags, fused parts or gaps C08H C08H limits assumed) above, with Q16H, N29S, A50S, A55P, P70L, P145A, T159I, R173G, R183G, P185R counted along it
Chain of rhesus OX40 expressed on HEK293A cells (rhesus) (P43489 other isoform, or with tags, fused parts or gaps limits assumed): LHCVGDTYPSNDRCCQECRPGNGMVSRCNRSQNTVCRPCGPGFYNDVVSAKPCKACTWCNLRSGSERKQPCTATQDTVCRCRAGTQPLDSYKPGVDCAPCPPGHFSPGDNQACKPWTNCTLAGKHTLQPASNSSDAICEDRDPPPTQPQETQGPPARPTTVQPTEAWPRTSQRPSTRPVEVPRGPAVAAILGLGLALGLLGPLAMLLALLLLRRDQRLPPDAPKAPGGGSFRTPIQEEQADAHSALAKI
Chain of human OX40-CD40 fusion protein on HEK-Blue reporter cells (human) (chain, as listed by the source limits assumed): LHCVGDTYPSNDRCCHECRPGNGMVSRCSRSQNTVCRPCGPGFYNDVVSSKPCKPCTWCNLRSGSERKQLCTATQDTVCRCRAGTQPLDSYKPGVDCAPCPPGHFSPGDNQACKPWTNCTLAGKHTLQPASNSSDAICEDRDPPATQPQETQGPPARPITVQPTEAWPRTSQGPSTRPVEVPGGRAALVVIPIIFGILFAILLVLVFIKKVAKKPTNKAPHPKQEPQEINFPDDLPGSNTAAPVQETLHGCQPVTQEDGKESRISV

| EC50 [1] [µg/mL] | EC50 (read off the curve) [2] [µg/mL] | EC50 (read off the curve) [3] [µg/mL] | Kd [4] [pM] | koff [4] [s⁻¹] | kon [4] [M⁻¹ s⁻¹] | EC50, agonistic activity in HEK-Blue assay [5] [µg/mL] | EC50 [6] [µg/mL] | EC50 [7] [µg/mL] | EC50 [8] [µg/mL] | EC50 (read off the curve) [9] [µg/mL] | EC50 (read off the curve) [10] [µg/mL] | Binder |
| --- | --- | --- | --- | --- | --- | --- | --- | --- | --- | --- | --- | --- |
| 0.0546 | 0.003 | 0.003 | 1790 | 0.000154 | 86300 | 0.31 | 0.088 | 0.0935 | 0.0651 | 0.3 | 0.3 | MEDI0562 (antibody, INN chains, looked up, V domains shown) VH: QVQLQESGPGLVKPSQTLSLTCAVYGGSFSSGYWNWIRKHPGKGLEYIGYISYNGITYHNPSLKSRITINRDTSKNQYSLQLNSVTPEDTAVYYCARYKYDYDGGHAMDYWGQGTLVTVSS VL: DIQMTQSPSSLSASVGDRVTITCRASQDISNYLNWYQQKPGKAPKLLIYYTSKLHSGVPSRFSGSGSGTDYTLTISSLQPEDFATYYCQQGSALPWTFGQGTKVEIK |
| 0.0668 | 0.003 | 0.003 | 5.49 | 1.76e-06 | 322000 | 0.121 | 0.113 | 0.134 | 0.0637 |  |  | RG7888 (antibody, INN chains, looked up, V domains shown) VH: EVQLVQSGAEVKKPGASVKVSCKASGYTFTDSYMSWVRQAPGQGLEWIGDMYPDNGDSSYNQKFRERVTITRDTSTSTAYLELSSLRSEDTAVYYCVLAPRWYFSVWGQGTLVTVSS VL: DIQMTQSPSSLSASVGDRVTITCRASQDISNYLNWYQQKPGKAPKLLIYYTSRLRSGVPSRFSGSGSGTDFTLTISSLQPEDFATYYCQQGHTLPPTFGQGTKVEIK |

From patent US10442866
